In publication PMC11897370 (Scientific Reports, 2025):

B1: Wild type (Wt) peroxiredoxin 6 (Prdx6), recombinant rat (enzyme)
chain: MPGGLLLGDEAPNFEANTTIGHIRFHDFLGDSWGILFSHPRDFTPVCTTELGRAAKLAPEFAKRNVKLIALSIDSVEDHFAWSKDINAYNGAAPTEKLPFPIIDDKDRDLAILLGMLDPAEKDEKGMPVTARVVFIFGPDKKLKLSILYPATTGRNFDEILRVVDSLQLTASNPVATPVDWKKGESVMVLPTLPEEEAKQLFPKGVFTKELPSGKKYLRYTPQP
B2: H79A mutant of rat Prdx6 (enzyme)
chain: MPGGLLLGDEAPNFEANTTIGHIRFHDFLGDSWGILFSHPRDFTPVCTTELGRAAKLAPEFAKRNVKLIALSIDSVEDAFAWSKDINAYNGAAPTEKLPFPIIDDKDRDLAILLGMLDPAEKDEKGMPVTARVVFIFGPDKKLKLSILYPATTGRNFDEILRVVDSLQLTASNPVATPVDWKKGESVMVLPTLPEEEAKQLFPKGVFTKELPSGKKYLRYTPQP
B3: D42A mutant of rat Prdx6 (enzyme)
chain: MPGGLLLGDEAPNFEANTTIGHIRFHDFLGDSWGILFSHPRAFTPVCTTELGRAAKLAPEFAKRNVKLIALSIDSVEDHFAWSKDINAYNGAAPTEKLPFPIIDDKDRDLAILLGMLDPAEKDEKGMPVTARVVFIFGPDKKLKLSILYPATTGRNFDEILRVVDSLQLTASNPVATPVDWKKGESVMVLPTLPEEEAKQLFPKGVFTKELPSGKKYLRYTPQP

Target: the molecule itself
Test: dynamic light scattering

Q: B1 was tested. Which “stoichiometry N” value did it give?
A: 2

Q: With B2 as the protein, how does the “stoichiometry N” value read?
A: 2

Q: Which “stoichiometry N” value does the source give for B3 here?
A: 2
